For data set [1], the system named is hexa-HIS peptide (synthetic). The experiment in a line: MST. Particulars: 20 mM Tris-HCl pH 7.4, 140 mM NaCl, 5 mM MgCl2, 1 mM CaCl2, 1 mM KCl; FLAA/MST with 0.1% BSA and 0.05% Tween 20 (FLAA at RT); SPR without BSA, 0.005% Tween 20 ….
The target of data set [2] is T1, HIS-NDM-1 (New Delhi metallo-beta-lactamase 1) (E. coli, UniProt C7C422 29-270). Briefly: SPR; aptamer immobilized; 20 mM Tris-HCl pH 7.4, 140 mM NaCl, 5 mM MgCl2, 1 mM CaCl2, 1 mM KCl; FLAA/MST with 0.1% BSA and 0.05% Tween 20 (FLAA at RT); SPR without BSA, 0.005% Tween 20. Particulars: protein: commercial, tags: N-terminal His6.
The target in data set [3] is CFHR1-HIS (Complement factor H-related protein 1) (UniProt Q03591 19-330). The description is as above. Particulars: protein: commercial, tags: C-terminal HIS.
Data set [4] has as its target T2, mPD1-HIS (mouse Programmed cell Death protein 1) (mouse, UniProt Q02242 25-169). The description is as above. Particulars: protein: commercial, tags: C-terminal HIS.
In data set [5] the target is T1, HIS-NDM-1 (New Delhi …). Briefly: FLAA; signal exceeds initial library; 20 mM Tris-HCl pH 7.4, 140 mM NaCl, 5 mM MgCl2, 1 mM CaCl2, 1 mM KCl; FLAA/MST with 0.1% BSA and 0.05% Tween 20 (FLAA at RT); SPR without BSA, 0.005% Tween 20. Particulars: protein: commercial; tags: N-terminal His6.
For data set [6], the target named is T2, mPD1-HIS (mouse Programmed cell Death …). Briefly: SPR; protein immobilized, 1 uM aptamer; 20 mM Tris-HCl pH 7.4, 140 mM NaCl, 5 mM MgCl2, 1 mM CaCl2, 1 mM KCl; FLAA/MST with 0.1% BSA and 0.05% Tween 20 (FLAA at RT); SPR without BSA, 0.005% Tween 20. Particulars: protein: commercial; tags: C-terminal HIS.
The target of data set [7] is T1, HIS-NDM-1 (New Delhi …). Briefly: FLAA; signal exceeds initial library; not seen in SPR; 20 mM Tris-HCl pH 7.4, 140 mM NaCl, 5 mM MgCl2, 1 mM CaCl2, 1 mM KCl; FLAA/MST with 0.1% BSA and 0.05% Tween 20 (FLAA at RT); SPR without BSA, 0.005% Tween 20. Particulars: protein: commercial; tags: N-terminal His6.
Data set [8] deals with T1, HIS-NDM-1 (New Delhi …). Briefly: SPR; aptamer immobilized; text gives upper limit 4.43E-09; 20 mM Tris-HCl pH 7.4, 140 mM NaCl, 5 mM MgCl2, 1 mM CaCl2, 1 mM KCl; FLAA/MST with 0.1% BSA and 0.05% Tween 20 (FLAA at RT); SPR without BSA, 0.005% Tween 20. Particulars: protein: commercial; tags: N-terminal His6; label: 5'-BiotinTEG (SPR kinetics); 5'-Cy5 (MST); none (screens).

The target of data set [9] is OXA-23 beta-lactamase (A. baumannii) (Acinetobacter baumannii, UniProt Q9L4P2 18-273). The experiment in a line: MST; 20 mM Tris pH 7.4, 140 mM NaCl, 5 mM MgCl2, 1 mM CaCl2, 1 mM KCl, 0.1% BSA, 0.05% Tween 20. Particulars: tags: N-His6; label: 5'-Cy5.
Data set [10] concerns the target T1, HIS-NDM-1 (New Delhi …). Briefly: MST; 20 mM Tris-HCl pH 7.4, 140 mM NaCl, 5 mM MgCl2, 1 mM CaCl2, 1 mM KCl; FLAA/MST with 0.1% BSA and 0.05% Tween 20 (FLAA at RT); SPR without BSA, 0.005% Tween 20. Particulars: protein: commercial, tags: N-terminal His6.
Where [11] appears, read: label: 5'-BiotinTEG (SPR kinetics), 5'-Cy5 (MST), none (screens).
[12] abbreviates: label: 5'-BiotinTEG (SPR), 5'-Cy5 (MST), none (FLAA).

T1 sequence (C7C422 29-270): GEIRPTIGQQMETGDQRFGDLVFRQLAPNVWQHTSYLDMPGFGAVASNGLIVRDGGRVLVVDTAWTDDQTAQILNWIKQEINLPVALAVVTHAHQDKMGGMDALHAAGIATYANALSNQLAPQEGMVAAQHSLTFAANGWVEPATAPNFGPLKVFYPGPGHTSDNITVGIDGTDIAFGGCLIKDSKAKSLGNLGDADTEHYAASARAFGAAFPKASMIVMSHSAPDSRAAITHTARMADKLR
T2 sequence (Q02242 25-169): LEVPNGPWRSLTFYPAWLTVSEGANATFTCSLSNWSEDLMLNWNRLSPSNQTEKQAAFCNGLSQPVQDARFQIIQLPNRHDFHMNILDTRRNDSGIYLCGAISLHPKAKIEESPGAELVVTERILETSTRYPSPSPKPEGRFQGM
Sequence of CFHR1-HIS (Complement factor H-related protein 1) (Q03591 19-330): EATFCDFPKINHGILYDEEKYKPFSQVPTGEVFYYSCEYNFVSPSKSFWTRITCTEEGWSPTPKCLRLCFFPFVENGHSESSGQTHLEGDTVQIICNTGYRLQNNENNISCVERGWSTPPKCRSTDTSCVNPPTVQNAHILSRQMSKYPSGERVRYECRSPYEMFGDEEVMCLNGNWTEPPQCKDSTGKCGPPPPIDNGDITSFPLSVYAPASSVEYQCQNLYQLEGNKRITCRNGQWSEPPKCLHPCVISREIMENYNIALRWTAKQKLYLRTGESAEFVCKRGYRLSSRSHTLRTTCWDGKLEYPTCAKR
Sequence of OXA-23 beta-lactamase (A. baumannii) (Q9L4P2 18-273): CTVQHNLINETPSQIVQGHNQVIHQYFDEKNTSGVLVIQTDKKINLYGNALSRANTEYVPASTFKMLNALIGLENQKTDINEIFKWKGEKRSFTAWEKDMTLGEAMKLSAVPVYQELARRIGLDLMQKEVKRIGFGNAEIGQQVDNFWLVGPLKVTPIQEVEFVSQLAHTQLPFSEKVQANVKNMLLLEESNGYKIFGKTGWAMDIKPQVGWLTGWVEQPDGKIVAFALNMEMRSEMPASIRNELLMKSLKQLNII

In data set [1], “GTATCTGGTGGTCTATGGCGTCATAGGTACCATGGGGGACTGCTCGGGATTGCGGATTCATGGCATAGACGACGAAGAAC [NDM1-H14-01]” showed a Kd of 28.1 nM.

For CGTCATAGGTACCATGGGGGACTGCTCGGGATTGCGGATTCATG (ssDNA) [NDM1-H14-01-FR], the Kd with HIS-NDM-1 (New Delhi …) [2] (label: 5'-BiotinTEG) turned out to be 5.91 nM; in [3] (label: 5'-BiotinTEG), 0.0286 nM; in [4] (label: 5'-BiotinTEG) it was 0.125 nM.

B1: NDM1-H14-02 (ssDNA)
DNA: GTATCTGGTGGTCTATGGCCAGTATGGCTGTTCAAGTCTTCAGAGGGTCTGCTCGGGATTGCGCATAGACGACGAAGAAC
B1: in the data set with HIS-NDM-1 (New Delhi …) [5], the binding result is recorded as “binds”.

B2: NDM1-H14-25 (ssDNA)
DNA: GTATCTGGTGGTCTATGGCAAACGTTCTGAGTTAGGCTTATTTTTCTCTCTTCCCTTCGCCGCATAGACGACGAAGAAC
For B2, the binding result (in data set [6]; with HIS-NDM-1 (New Delhi …) [7]) was “binds” each time.

B3: NDM1-H14-01 (ssDNA)
DNA: GTATCTGGTGGTCTATGGCGTCATAGGTACCATGGGGGACTGCTCGGGATTGCGGATTCATGGCATAGACGACGAAGAAC
Take B3: the figures for the equilibrium dissociation constant (Kd) (in [3] (setting [11]); in data set [4] (setting [11]); with HIS-NDM-1 (New Delhi …) [8]) were 0.0449 nM, 0.0986 nM and 4.34 nM, respectively.

B4: NDM1-H14.2_43 (ssDNA)
DNA: GTATCTGGTGGTCTATGGCCGCTATCCGCAATCTGTCTCTTTTCTTTATTCTTTTACTCACCGCATAGACGACGAAGAAC
Regarding B4, in [9], the binding result is “no binding”. Further, the equilibrium dissociation constant (Kd) with HIS-NDM-1 (New Delhi …) [10] (setting [12]) was 2820 nM; with HIS-NDM-1 (New Delhi …) [2] (setting [12]), 745 nM.

B5: Con1 (ssDNA)
DNA: GGGAATTCGAGCTCGGTACCGGCTGCTTTGCTGCAGATTTGTGGGTGGGTGGGTGGTGATCTGCAGGCATGCAAGCTTGG
For B5, the binding result in the data set with HIS-NDM-1 (New Delhi …) [10] (label: 5'-Cy5) is on record as “no binding”.
